Source: patent US20200040086A1 (BERLIN CHEMIE, published 2020)

Columns and labels:
RHFVSLCQ = target: T1, RHFVSLCQ; test: peptide microarray of 8mer LY75 peptides
T1 construct: 8mer of LY75 on the peptide microarray, chart Region 6
T1 peptide: RHFVSLCQ

SLCQKYSE = target: T2, SLCQKYSE; test: peptide microarray of 8mer LY75 peptides
T2 construct: 8mer of LY75 on the peptide microarray, chart Region 6
T2 peptide: SLCQKYSE

LCQKYSEV = target: T3, LCQKYSEV; test: peptide microarray of 8mer LY75 peptides
T3 construct: 8mer of LY75 on the peptide microarray, chart Region 6
T3 peptide: LCQKYSEV

CQKYSEVK = target: T4, CQKYSEVK; test: peptide microarray of 8mer LY75 peptides
T4 construct: 8mer of LY75 on the peptide microarray, chart Region 6
T4 peptide: CQKYSEVK

QKYSEVKS = target: T5, QKYSEVKS; test: peptide microarray of 8mer LY75 peptides
T5 construct: 8mer of LY75 on the peptide microarray, chart Region 6
T5 peptide: QKYSEVKS

NLYKIIPK = target: T6, NLYKIIPK; test: peptide microarray of 8mer LY75 peptides
T6 construct: 8mer of LY75 on the peptide microarray, chart Region 7
T6 peptide: NLYKIIPK

KIIPKTLT = target: T7, KIIPKTLT; test: peptide microarray of 8mer LY75 peptides
T7 construct: 8mer of LY75 on the peptide microarray, chart Region 7
T7 peptide: KIIPKTLT

IIPKTLTW = target: T8, IIPKTLTW; test: peptide microarray of 8mer LY75 peptides
T8 construct: 8mer of LY75 on the peptide microarray, chart Region 7
T8 peptide: IIPKTLTW

PKTLTWHS = target: T9, PKTLTWHS; test: peptide microarray of 8mer LY75 peptides
T9 construct: 8mer of LY75 on the peptide microarray, chart Region 7
T9 peptide: PKTLTWHS

KTLTWHSA = target: T10, KTLTWHSA; test: peptide microarray of 8mer LY75 peptides
T10 construct: 8mer of LY75 on the peptide microarray, chart Region 7
T10 peptide: KTLTWHSA

[1] = target: Contiguous 8mer peptides of LY75 protein spanning residues 216 to 1666 of the full length LY75 protein; test: peptide microarray, 1 ug/mL LY75_A1, anti-human IgG Alexa 647
[2] = target: Contiguous 8mer peptides of LY75 protein spanning residues 216 to 1666 of the full length LY75 protein; test: peptide microarray, 1 ug/mL LY75_A1, anti-human IgG Alexa 647; the peptide is not named
LSCYKVFH = target: T11, LSCYKVFH; test: peptide microarray of 8mer LY75 peptides, LY75_A1 at 1 µg/mL, anti-human IgG Alexa 647
T11 construct: 8mer of LY75 on the peptide microarray, chart Region 2
T11 peptide: LSCYKVFH
Method: (§1) The peptide microarray analysis was performed by LC Sciences, Houston Tex., in brief the method comprised the following steps:—Contiguous 8mer peptides of LY75 protein having […] spanning residues 216 to 1666 of the full length LY75 protein were synthesized and immobilized on a microarray chip. The chip comprised three panels such that the experiment was performed in triplicate. The microarray was addressed with LY75_A1 to identify the peptides to which the antibody bound. The binding assay was performed under the following conditions:—
(§2) The microarray comprising the contiguous peptides in triplicate was washed with 1 mL of binding buffer at 4° C. for 20 min. It was then incubated with 1 μg/mL LY75_A1 in binding buffer (pH 7.0) at 4° C. for 2 hrs. The array was again washed with 0.5 mL of washing buffer at 4° C. for 30 min then incubated with 25 ng/mL anti-human IgG Alexa 647 conjugate in binding buffer (pH 7.0) at 4° C. for 1 hr. The array was again washed with 0.5 mL of washing buffer at 4° C. for 30 min.

PWRRGWHF = target: T12, PWRRGWHF; test: as above
T12 construct: 8mer of LY75 on the peptide microarray, chart Region 3
T12 peptide: PWRRGWHF
Method: as §1, §2

RRGWHFYD = target: T13, RRGWHFYD; test: as above
T13 construct: 8mer of LY75 on the peptide microarray, chart Region 3
T13 peptide: RRGWHFYD
Method: as §1, §2

DDHFTYSR = target: T14, DDHFTYSR; test: as above
T14 construct: 8mer of LY75 on the peptide microarray, chart Region 4
T14 peptide: DDHFTYSR
Method: as §1, §2

YSRYPWHR = target: T15, YSRYPWHR; test: as above
T15 construct: 8mer of LY75 on the peptide microarray, chart Region 4
T15 peptide: YSRYPWHR
Method: as §1, §2

SRYPWHRF = target: T16, SRYPWHRF; test: as above
T16 construct: 8mer of LY75 on the peptide microarray, chart Region 4
T16 peptide: SRYPWHRF
Method: as §1, §2

PWHRFPVT = target: T17, PWHRFPVT; test: as above
T17 construct: 8mer of LY75 on the peptide microarray, chart Region 4
T17 peptide: PWHRFPVT
Method: as §1, §2

WHRFPVTF = target: T18, WHRFPVTF; test: as above
T18 construct: 8mer of LY75 on the peptide microarray, chart Region 4
T18 peptide: WHRFPVTF
Method: as §1, §2

HRFPVTFG = target: T19, HRFPVTFG; test: as above
T19 construct: 8mer of LY75 on the peptide microarray, chart Region 4
T19 peptide: HRFPVTFG
Method: as §1, §2

YSNFHPLL = target: T20, YSNFHPLL; test: as above
T20 construct: 8mer of LY75 on the peptide microarray, chart Region 5
T20 peptide: YSNFHPLL
Method: as §1, §2

SCSERHFV = target: T21, SCSERHFV; test: as above
T21 construct: 8mer of LY75 on the peptide microarray, chart Region 6
T21 peptide: SCSERHFV
Method: as §1, §2

YLNNLYKI = target: T22, YLNNLYKI; test: as above
T22 construct: 8mer of LY75 on the peptide microarray, chart Region 7
T22 peptide: YLNNLYKI
Method: as §1, §2

KLSRLTYS = target: T23, KLSRLTYS; test: as above
T23 construct: 8mer of LY75 on the peptide microarray, chart Region 9
T23 peptide: KLSRLTYS
Method: as §1, §2

SRWIQYKG = target: T24, SRWIQYKG; test: as above
T24 construct: 8mer of LY75 on the peptide microarray, chart Region 10
T24 peptide: SRWIQYKG
Method: as §1, §2

RWIQYKGH = target: T25, RWIQYKGH; test: as above
T25 construct: 8mer of LY75 on the peptide microarray, chart Region 10
T25 peptide: RWIQYKGH
Method: as §1, §2

B1: LY75_A1 (antibody, V domains shown)
VH: EVQLVESGGGLVKPGGSLRLSCAASGFTYSNAWMSWVRQAPGKGLEWVGRIKSKTDGGTTDYAAPVQGRFTISRDDSKNTLYLQMNSLKTEDTAVYYCTIFGVVSFDYWGQGTLVTVSS
VL: DVQMTQSPSSLSASVGDRVTITCRASQSISDYLSWYQQRPGKAPNLLIYAASNLKTGVPSRFSGSGSGTDFTLTISTLQPEDFATYYCQQSYRSPWTFGQGTKVEIKR
notes: detected with anti-human IgG in the microarray; also called antibody LY75_A1; LY75_A1 monoclonal antibody
**Q.** Does B1 bind (RHFVSLCQ)?
**A.** Result: no binding (tested: 1 µg/mL)

**Q.** Does B1 bind (SLCQKYSE)?
**A.** Result: no binding (tested: 1 µg/mL)

**Q.** Does B1 bind (LCQKYSEV)?
**A.** Result: no binding (tested: 1 µg/mL)

**Q.** Does B1 bind (CQKYSEVK)?
**A.** Result: no binding (tested: 1 µg/mL)

**Q.** Does B1 bind (QKYSEVKS)?
**A.** Result: no binding (tested: 1 µg/mL)

**Q.** Does B1 bind (NLYKIIPK)?
**A.** Result: no binding (tested: 1 µg/mL)

**Q.** Does B1 bind (KIIPKTLT)?
**A.** Result: no binding (tested: 1 µg/mL)

**Q.** Does B1 bind (IIPKTLTW)?
**A.** Result: no binding (tested: 1 µg/mL)

**Q.** Does B1 bind (PKTLTWHS)?
**A.** Result: no binding (tested: 1 µg/mL)

**Q.** Does B1 bind (KTLTWHSA)?
**A.** Result: no binding (tested: 1 µg/mL)

**Q.** And the average signal for all spots on the array (signal intensity (scale 1-65535)) [1]?
**A.** Its average signal for all spots on the array (signal intensity (scale 1-65535)) is 885.

**Q.** What about the maximum signal (signal intensity (scale 1-65535)) [2] of the same binder?
**A.** Its maximum signal (signal intensity (scale 1-65535)) is 25000.

**Q.** Does B1 bind (LSCYKVFH)?
**A.** Result: binds

**Q.** Does B1 bind (PWRRGWHF)?
**A.** Result: binds

**Q.** Does B1 bind (RRGWHFYD)?
**A.** Result: binds

**Q.** Does B1 bind (DDHFTYSR)?
**A.** Result: binds

**Q.** Does B1 bind (YSRYPWHR)?
**A.** Result: binds

**Q.** Does B1 bind (SRYPWHRF)?
**A.** Result: binds

**Q.** Does B1 bind (PWHRFPVT)?
**A.** Result: binds

**Q.** Does B1 bind (WHRFPVTF)?
**A.** Result: binds

**Q.** Does B1 bind (HRFPVTFG)?
**A.** Result: binds

**Q.** Does B1 bind (YSNFHPLL)?
**A.** Result: binds

**Q.** Does B1 bind (SCSERHFV)?
**A.** Result: binds

**Q.** Does B1 bind (YLNNLYKI)?
**A.** Result: binds

**Q.** Does B1 bind (KLSRLTYS)?
**A.** Result: binds

**Q.** Does B1 bind (SRWIQYKG)?
**A.** Result: binds

**Q.** Does B1 bind (RWIQYKGH)?
**A.** Result: binds
